Assay results published in PMC3348880, “MSMEG_2731, an Uncharacterized Nucleic Acid Binding Protein from Mycobacterium smegmatis, Physically Interacts with RPS1” (PLoS ONE, 2012).

T1: 30S ribosomal protein S1 (RPS1) (Mycobacterium smegmatis, UniProt A0QYY6 1-479)
T1 sequence: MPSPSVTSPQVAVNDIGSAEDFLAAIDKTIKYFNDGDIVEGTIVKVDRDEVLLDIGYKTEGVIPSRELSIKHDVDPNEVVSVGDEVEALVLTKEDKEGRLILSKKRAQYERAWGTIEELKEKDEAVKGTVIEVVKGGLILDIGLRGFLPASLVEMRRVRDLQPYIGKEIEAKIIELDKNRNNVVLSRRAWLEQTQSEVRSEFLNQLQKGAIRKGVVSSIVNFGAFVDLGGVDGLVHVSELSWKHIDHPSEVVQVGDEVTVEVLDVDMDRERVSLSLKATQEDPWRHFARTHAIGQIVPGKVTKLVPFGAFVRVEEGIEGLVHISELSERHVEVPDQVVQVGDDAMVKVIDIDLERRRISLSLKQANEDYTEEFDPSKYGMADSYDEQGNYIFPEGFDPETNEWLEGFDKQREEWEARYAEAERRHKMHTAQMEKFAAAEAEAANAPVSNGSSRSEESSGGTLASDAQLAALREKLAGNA

T2: MSMEG_2731;30S ribosomal protein S1 (RPS1) (Mycobacterium smegmatis;Mycobacterium …, UniProt A0QVX6;A0QYY6 1-454;1-479, |)
T2 sequence 1: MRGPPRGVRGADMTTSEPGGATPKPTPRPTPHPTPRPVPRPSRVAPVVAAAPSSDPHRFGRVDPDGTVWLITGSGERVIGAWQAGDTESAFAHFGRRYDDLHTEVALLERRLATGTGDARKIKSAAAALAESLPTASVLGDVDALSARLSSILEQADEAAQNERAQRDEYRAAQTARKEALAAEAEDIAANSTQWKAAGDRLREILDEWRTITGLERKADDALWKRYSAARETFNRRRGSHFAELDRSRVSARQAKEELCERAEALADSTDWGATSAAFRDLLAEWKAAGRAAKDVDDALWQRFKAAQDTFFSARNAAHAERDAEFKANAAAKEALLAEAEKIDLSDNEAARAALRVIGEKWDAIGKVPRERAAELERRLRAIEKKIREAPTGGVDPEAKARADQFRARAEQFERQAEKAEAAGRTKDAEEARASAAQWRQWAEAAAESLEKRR
T2 sequence 2: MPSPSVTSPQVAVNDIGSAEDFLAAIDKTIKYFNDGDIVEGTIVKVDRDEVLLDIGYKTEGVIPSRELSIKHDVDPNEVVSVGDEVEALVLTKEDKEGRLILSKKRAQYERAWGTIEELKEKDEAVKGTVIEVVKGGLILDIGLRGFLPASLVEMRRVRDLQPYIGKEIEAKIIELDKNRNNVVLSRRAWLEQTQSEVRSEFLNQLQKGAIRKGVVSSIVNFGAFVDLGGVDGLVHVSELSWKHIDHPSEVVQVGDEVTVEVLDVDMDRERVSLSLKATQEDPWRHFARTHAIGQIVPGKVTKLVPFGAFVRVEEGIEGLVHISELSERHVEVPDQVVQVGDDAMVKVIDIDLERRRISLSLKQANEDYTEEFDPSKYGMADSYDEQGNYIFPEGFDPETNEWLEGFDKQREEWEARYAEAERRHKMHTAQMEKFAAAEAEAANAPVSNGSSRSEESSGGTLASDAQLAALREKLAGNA

T3: purified recombinant RPS1 (M. smegmatis, UniProt A0QYY6 1-479)
T3 construct: 30S ribosomal protein S1 (RPS1) of Mycobacterium smegmatis, gene amplified from M. smegmatis genomic DNA; Cloned into pET28a or pGEX-6P-1; also called purified RPS1; ribosomal protein S1; source: E. coli BL21 (DE3), purified
T3 sequence (looked up): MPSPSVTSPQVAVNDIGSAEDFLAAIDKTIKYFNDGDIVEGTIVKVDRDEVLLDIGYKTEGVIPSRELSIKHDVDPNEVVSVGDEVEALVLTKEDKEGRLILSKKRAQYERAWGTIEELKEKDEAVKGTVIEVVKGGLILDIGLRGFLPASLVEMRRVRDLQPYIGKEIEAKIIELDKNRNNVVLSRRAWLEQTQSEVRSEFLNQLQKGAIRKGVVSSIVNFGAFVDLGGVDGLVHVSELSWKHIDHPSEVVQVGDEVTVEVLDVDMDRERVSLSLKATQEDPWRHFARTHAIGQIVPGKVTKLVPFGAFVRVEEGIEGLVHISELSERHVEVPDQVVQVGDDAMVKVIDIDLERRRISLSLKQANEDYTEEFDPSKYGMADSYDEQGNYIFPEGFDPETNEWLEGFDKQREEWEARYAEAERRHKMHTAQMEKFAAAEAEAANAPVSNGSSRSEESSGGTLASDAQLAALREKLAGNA


Tests used:
[1] = target: T1, 30S ribosomal protein S1 (RPS1); assay: SPR; 2.5 uM RPS1; fast association, complete dissociation; SPR (Biacore T100, SA chip): 25 mM Tris-HCl pH 7.4, 150 mM NaCl, 0.005% Tween 20, 25 C, 30 ul/min; conditions: protein: recombinant; Methods name pET28a or pGEX-6P-1; label: 5' biotin (immobilized on SA chip); single strand
[2] = target: T2, MSMEG_2731;30S ribosomal protein S1 …; assay: SPR; 2.5 uM RPS1 with 1.25, 2.5 or 5 uM MSMEG_2731; maximum response at 1:1; kinetics like RPS1 alone; SPR (Biacore T100, SA chip): 25 mM Tris-HCl pH 7.4, 150 mM NaCl, 0.005% Tween 20, 25 C, 30 ul/min; conditions: protein: recombinant;recombinant; Methods name pET28a or pGEX-6P-1; copies: 1;1; label: 5' biotin (immobilized on SA chip); single strand
[3] = target: T3, purified recombinant RPS1; assay: SPR; Biacore T100, 25°C; mixtures of 2.5 μM RPS1 with 1.25, 2.5 or 5 μM MSMEG_2731 passed over RNA immobilised on an SA chip (100 RU); 25 mM Tris-HCl pH 7.4, 150 mM NaCl, 0.005% Tween 20; conditions: both partners purified

Row | stoichiometry N [3] | Binder | binding result [1] | binding result [2]
1 |  | CACGUAUCUCGAGGAGCGGAUAUGA (ssRNA, 5' biotin) [RNA 25 nt] | binds | binds
2 | 1 | MSMEG_2731, N-terminal His-tagged recombinant protein (natural protein, M. smegmatis, UniProt A0QVX6 1-454, looked up, MSMEG_2731, conserved hypothetical alanine and arginine rich protein of Mycobacterium smegmatis, 454 amino acids, three tandem repeats of DUF349; The protein tends to degrade at its N-terminus in vitro; also called full-length MSMEG_2731; recombinant MSMEG_2731; source: E. coli BL21 (DE3), pET28a, purified (Ni-NTA, gel filtration)) MRGPPRGVRGADMTTSEPGGATPKPTPRPTPHPTPRPVPRPSRVAPVVAAAPSSDPHRFGRVDPDGTVWLITGSGERVIGAWQAGDTESAFAHFGRRYDDLHTEVALLERRLATGTGDARKIKSAAAALAESLPTASVLGDVDALSARLSSILEQADEAAQNERAQRDEYRAAQTARKEALAAEAEDIAANSTQWKAAGDRLREILDEWRTITGLERKADDALWKRYSAARETFNRRRGSHFAELDRSRVSARQAKEELCERAEALADSTDWGATSAAFRDLLAEWKAAGRAAKDVDDALWQRFKAAQDTFFSARNAAHAERDAEFKANAAAKEALLAEAEKIDLSDNEAARAALRVIGEKWDAIGKVPRERAAELERRLRAIEKKIREAPTGGVDPEAKARADQFRARAEQFERQAEKAEAAGRTKDAEEARASAAQWRQWAEAAAESLEKRR |  | 
